Measurements reported in the nanobody polyreactivity screen of Harvey et al. (2022).

Assay: yeast display, Sf9 membrane polyspecificity reagent, FACS + sequencing; frameworks hold sequencing errors
Procedure, shortened: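 Using colony PCR, genes from sorted yeast display clones were amplified, then sequenced on MiSeq at 2 × 250 and filtered by CDR length. The clones had been stained with 10% biotinylated, detergent-solubilized Sf9 membrane reagent for 1 hour at 4 °C and sorted by FACS into low and high (top ~1%) gates on anti-HA and streptavidin fluorescence. Polyreactivity labels come from the gate of origin.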

Sequence | polyreactivity (PSR sort gate)
QVQLVESGGGLVQAGGSLRLSCAASGRTFGNYAMGWYRQAPGKERELVAAITSSGGTTYYADSVKGRFTISRDYAKNTVYLQMNSLKPEDTAVYYCAARHYPRNSWGYDYWGQGTQVNVSS | high polyreactivity
QVQLVESGGGLVQAGGSLRLSCAATGFIFPKYAMGWYSKAPGKERELVAAISKSGGRTYYADSVKGRFTISRDNAKNTVYLQMNSLKPEDTAVYYCAAEFTYEGDSWGQGTQVTVSS | high polyreactivity
QVQLEESGGGLVQAGGSLRLSCAASGFTFPWNVMGWYRQAPGKEREFVAAISKSAGSTFYADSVKGRFTISRDNAKNTVYLQMNSLKPEDTAVYYCAKPRVPGVHVQEMYYWGQGTQVTVSS | low polyreactivity
QVQLVESGGGLVQAGGSLRLSCAASGRTFRTYVMGWYRQAPGKERELVAAITWSGGRTYYADSVKGRFTISRDNAKNTVYLQMNSLKPEDTAVYYCATQPTYYLRSYGLDYWGQGTQVTVSS | high polyreactivity
QVQLVESGGGLVKAGGSLRLSCAASGFSFFGYAMGWYRQAPGKERELVAAIDNGGSTNYADSVKGRFTISRDNAKNTVYLQMNSLKPEDTAVYYCNTDVDYAILDYWGQGTQVTVSS | low polyreactivity
QVQLVESGGGLVQAGGSLRLSCAASGIIFWVNAMGWYRQAHGKETELVAAITISGVSTYYADSVKGRFTISRDNAKNTVYLQMNSLKPEDTAVYYCAKDPTFSSSFAVSLGFDSWGQGTQVTVSS | low polyreactivity
QVQLVESGGGLVQAGGSLRLSCAASGRIFFPNAMGWYRQAPGKERELVAAITSGSSTYYADSVKGRFTISRDNAKNTVYLQMNSLKPEDTAVYYCAARGRRGEAYRSVYYWGQGTQVTVSS | high polyreactivity
QVQLVESGGCLVQAGGSLRLSSAASGSIFHAYAMGWYRQSPGKESELVAAITIDGSTNYADSVKGRFTISRDNAKNTVYLQMNSLKPEDTAVYYCNKDGAYDAYSYDYWGQGTQVTVSS | low polyreactivity
QVQLVESVVGLVQEGGSLRFSCAASASTLDSNPIGWYRQAPGKEREVVAAITSGGSTYYADSVKGRFTISRDNAKNTVYLQMNSLKPEDSAVYYCATAWYLGRYRSLGYWGQGTQVTVSS | high polyreactivity
QVQLVESGGGLVQAGGSLRLSCAASGSILYRNAMGWYRQAPGKERELVAGITRRGGSTYYADSVKGRFTISRDNAKNTVYLQMISLKPEDTAVYYCNVQRARRQRQYGYWGQGTQVTVSS | low polyreactivity
QVQLVESGGGLVQAGGSLRLSCSASRSTFYGNAMGWYRQAPGKERELVAAISSGDITYYADSVKGRFTISRDNAKNTVYLQMNSLKPEDTAVYYCATDYGYSWYDYWGQGTQVTVSS | low polyreactivity
QVQLVESCGGLVQAGGSLRLSCADSGRTFGSYAMGWYRQATRKDRELVASISRSGGTTYYADSVKGRFTLSRDNAKNTVYLQMYSQKPEDTAVYYCAAQYVRYGLYYWGQGTQVTVSS | high polyreactivity
QVQLVESGGGLDQAGGSLRLSCAASGFIFVYNVMGWYRQAPGKEREFVATITWRGVTTYYADSVKGRFTISRDNAKNTVYLQMNSLKPEDTAVYYCAVTVAYSYPRRSHYYWGQGTQVTVSS | low polyreactivity
QVQLVESGGGLVQAGGSLRLSCAASGRIFTRYAMGWYRPSPGKERELVAAISRNGGGTYYAESVKGRFTISRDNAKNTVYLQMNSLKPEDTAVYYCNAESTFVWGSYVRYDYWGQGTQVTVSS | low polyreactivity
QVQLQESGGGLVKAGGSLRLSCAASGNISNHNDMGWYRQAPGKEREFVAGITAGGITNYADSVKGRFTISRDNAKNTVYLLMKRLKPEDTAVYYCAAYPDYAKSYGFWGQGTQATVSS | low polyreactivity
QVQLVESGGGLVQAGGSLRLSCAASGIIFPYYAMGWYRQAPGKERELVAAISSRDGRTYYADSVKGRFTISRDNAKNTVYLQMNSLKPEDTAVYYCAARAVGGVRGYRYDYWGQGTQVTVSS | high polyreactivity
QVQLVESGGGLVQAGGSLRLSCAASGSIFHGNAMGWYRQAPGKERELVAAITGRGVSTYYADSVKGRFTISRDNAKNTVYLQMKSLKPEDTAVYYCAAVRSKYWYYQGGYSSYGYWGQGTQVTVSS | high polyreactivity
QFQLVESGGGLVQAGGSLRLSFAASGFIFGLYAMGWYRQAPGIETELVAAISGSGGSTYYADSVKGRFTISRDNAKNTVYLQMNSLKPEDTAVYYCNRAQGVHTYVYRYGYWGQGTQVTVSS | low polyreactivity
QVQLVESGGGLVQAGGSLRISCAASGRISVVNAMGWYRQAPGKEREMVAAIRRASTNYADSVKGRFTISRDNAKNTVYLQMNSLKPEDTAVYFCAARVYGINIFEYWGQGTQVTVSS | high polyreactivity
QDQLVDSGVGLVQAGGSLRLSCAASGLIFGRNVMGWYRQAPGKERELVAAISWSGGRTYYADSVKGRFTISRDNAKNTVYLQMNSLKPEDTAVDYCATDRSTRTYRSPYDYWGQGTQVTVSS | high polyreactivity
QVQLVESGGGLVQAGGSLRLSCAASGRTFSYSAMGWYRQAPGKERELVAAITGSGGRTYYADSVKGRFTISRDNAKNTVYLQMNSLKPEDTAVYYCAARYLYEGQLRPIRYYHYGYWGQGTQVTVSS | high polyreactivity
QVQVVESGGGLVQAGGSLRLSCAASGSTFVIYAMGWYRQAPGKEMELVAGITYSGGRTYYADSVKGRFTISRDNAKNTVYLHMNSLKPEDTAVYYCNARSTWPSGRYAHYRRYYYWGQGTQVTVSS | high polyreactivity

Sequence | polyreactivity (PSR sort gate)
QVQLVESGGGLVQAGGSLRLSCAASGRTFAYYTMGWYRQAPGKERELVARISGYGGSTYYADSVKGRFTLSRDNAKNTVYLQMNSLKPEDTAVYYCNVVGAYYRYDYWGQGTQVTVSS | high polyreactivity
QVKLEESGGGLVQAGGSLRLSSAASGYTIGIYAMGWYRQAPGKERELVAAISADGGITYYADSVKGRFTISRDNAKNTVYLQMNSLKPEDTAFYYCNTLVDQDAYAGFRLDYWGQGSQVTVSS | low polyreactivity
QVQLEESGGGLDQAGGSLRLSCAASGIIFGYYAMGWYIQAPGKQSEFVAAINYSGVSTYYADSVKGRFTISLDNAKNTVYLEMHSLKPEDTAVYYCAAGPYAGVDPGYYYYWGKGTQVTVSS | low polyreactivity
QGQLVESGGGLVQAGGSLRLSCAASGGTFRAYVMGWSRQAPGKERELVADISRSGTRTYYADSVKGRFTISRDNAKNTVYLQMNSLKPEDTAVYYCAAAAKSWLFEYWGQGTQVTVSS | high polyreactivity
QVQLVESGGGLVQAGGSLRLSCAASGFTFVYYVMGWYRQAPGKERELVAAITYSGGSTYYADSVKGRFTISRDNAKNTVYLHMNSLKPEDTAVYYCAKEVQTYWYHYYYWGQGTQVTVSS | high polyreactivity
QVQLVESGAGLVQAGGSLRLSCAASGYTFYFYAMGWYRQAPGKERELVAAITGGGTTSYADSVKGRFTISRDNAKNTVYLQMNSLKPEDTAVYYCNVLFADKSDYCGQGTQVTVSS | low polyreactivity
QVQLVESGGGLVQAGGSLRLSCAASGSTFSSNAMGWYRQAPGKERELVAAIDRGGSTYYADSVKGRFTISRDNAKNTVYLQMNSLKPEDTAVYYCAKGFDFRRRYDYWGQGTQVTVSS | low polyreactivity
QVQLVESVGGLVQAGGSLRLSCPTSGRIFTYYAMGWYRQAPGKERELVAAINSRGGSTYYADSVKGRFTISRDNAKNTVYLQMNSLKPEDSAVYYCAAVGLYSRYAYWGQGTQVSVSS | high polyreactivity
QVQLVESGGGLVQAGGSLRLSCAASGNIFDLYAMGWYRQAPGKERELVAAITRSSSRTYYADSVKGRFTISRDNAKNTVYLQMNSLKPEDTAVYYCRAKQVNRFDYWGQGTQVTVSS | high polyreactivity
QVQLVESGGGLVQAGGSLRLSCAASGSTFLYYSMGWYRQAPGKETELVAAIDSGGSTYYADSVKWRFTISRDNAKNTVYLQMNSLKPEDTAVYYCNPDFADHWPPNGPGAHDYWGQGTQVTVSS | low polyreactivity
QVQLVESGGGLVQAGGSLRLSCAASGFTFTRYAMGWYRQAPGKERELVAAISWSGGSTYYADSVKGRFTISRDNAKNTVYLQMNSLKPEDTAVYYCAKRGTVRQGGYGYWGQGTLVTVSS | high polyreactivity
QVQLVESGGGLVQAGGSLRLSCAASGRIIQYNAMGWYRQAPGKERELVAAISWRSGRTYYADSVKGRFTISRDNAKNTVYLQMNSLKPEDTAVYYCAATSRTSWYGYWGQGTQVTVSS | high polyreactivity
QVQLVETGGGLVQAGGSLRLSCAASASIFTANAMGWYRQAPGKERELVAAISRSGGRTYYADSVKGRFTISRDNAKNTVYLQMNSLKPEDTAVYYCAAVYVYPSTSRYDFWGQGTQVTVSS | high polyreactivity
QVQLVESGGGLVQAGGSLLLSCDASGLTFGYYVMGWYRQAPGKERELVASITNGGGSTYYADSVKGRFTISRDYAKNTVYLQMNSLKPEDTAVYYCAAGSYLRKFDYWGQGTQVTVSS | high polyreactivity
QVQLVDSGGGLVQAGGSLRLSCAASGRTFPSYVMGWYRQAPGKERELVAAISWSGGSTSYADSVKGRFTISRDNAKNTVYLQMNSLKPEDTAVYYCNADRRPGGDYWGQGTQVTVSS | low polyreactivity
QVQIVESRGGLVQAGGSLRLSCAASGSIIRYYVMGWYRQAPRKERELVASISYSVGRTYYADSVKGRFTISRDNAKNTVYLQMNSLKPEDSAVYYCASDRYWPYYSAYYTSYRMDYWGQGTQVTVSS | high polyreactivity
QGQLVESGGGLVQAGGSLRLSCAASGFTFARNVMGWSRQAPGTERELVAAITTSGGSTYYADSVKGRFTISRDNAKNTVYLQMNSLKPEDTAVYYCARRVYGYYIPYNYWGQGTQVTVSS | high polyreactivity
QVQLVESGGGLVQAGGSLRLSCAASGRIFSPNAMGWYRQAPGKERELVAAITRGGSTNYADSVKGRFTISRDNAKNTVYLQMNSLKPEDTAVYYCAAQLAKTISGRGYNSWGQGTQVTVSS | low polyreactivity
QVQHVESGGGLVQAGGSLRLSCAASGYTFIMYVMGWYRQAPGKERELVAAIDSNGTSTYADSVKGRFTISLDNAKNTVYFQMNSLKPEDTAVYYCAAGDIFRVFKEYDYWGQGTQVTVSS | low polyreactivity
QVQLVESGRGLVQAGGSLRLSCAASGSTFPKNAMGWYRQAPGKERELVASISSDGSTYYADSVKGRFTISRDNAKNTVYLQMNSLKPEDTAVYYCAAVLWEPPVHPGYDYWGQVTQVTVSS | low polyreactivity
QVQLVESGGGLVQAGGSLRLSCAASGRIFNGNAMGWYRQAPGKESELVAAISTSGGRTYYADSVKGRFTISRDNAKNTVYLQMNSLKPEDTAVYYCAARYFRRDYIDYDLWGQGTQVTVSS | low polyreactivity
